According to paper PMC5495134:

Key:
[1] = target: Mth1491 homotrimer with a cysteine introduced at position 92, modified with azo maleimide 3 (Methanobacterium thermoautotrophicum); test: affinity chromatography on beta-cyclodextrin resin with LC-MS of fractions; Mth1491 modified to about 50% with azo maleimide 3, eluted from a column packed with resin 4 (beta-cyclodextrin on sepharose CL-4B); four peaks for the modification states of the trimer; isolated singly and doubly modified species repurified; trimer disassembles upon LC-MS
[2] = target: Mth1491 homotrimer with a cysteine introduced at position 92, tagged, azo-cleaved, AF-labelled and protected with Ellman's reagent (Methanobacterium thermoautotrophicum); test: dynamic light scattering; average particle size before and after protection with Ellman's reagent (5.5 ± 0.3 nm to 7.4 ± 0.9 nm)

| stoichiometry N [1] | stoichiometry N [2] | Substance |
| --- | --- | --- |
| 3 | – | Mth1491 homotrimer with a cysteine introduced at position 92, modified with azo maleimide 3 (natural protein) |
| – | 3 | Mth1491 homotrimer with a cysteine introduced at position 92, tagged, azo-cleaved, AF-labelled and protected with Ellman's reagent (natural protein) |
